Here are results for 1 molecule from US20230340071A1 (published 2023).

Test [1] concerns the target T1, Biotinylated hIL2RB (UniProt P14784 27-240, biotinylated (site not stated)).
T1 chain: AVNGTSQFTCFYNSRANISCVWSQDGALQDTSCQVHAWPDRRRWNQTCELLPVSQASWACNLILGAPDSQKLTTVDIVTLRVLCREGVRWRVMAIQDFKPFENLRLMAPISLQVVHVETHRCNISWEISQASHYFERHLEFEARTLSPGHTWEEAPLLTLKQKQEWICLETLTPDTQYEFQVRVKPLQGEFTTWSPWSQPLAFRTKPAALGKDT
Description: BLI. In general terms: In BLI a coated tip is dipped into the sample, and binding shifts an interference pattern.

For test [2], the target named is T2, hIL2RB-fc chimera (human, UniProt P14784 27-240).
T2 construct: also called hIL2 receptor beta; hIL-2Rβ; not shown: Fc part of the bought chimera (captured on anti-human IgG Fc biosensors)
T2 sequence: T1 chain
In words: BLI competition: hIL2RG-fc on sensor, dilutions of P4 + 20 nM Neo-2/15 + 50 nM hIL2RB-fc; competitor Neo-2/15; read-out binding to hIL2RBG. Here is the method: (§1) All samples were prepared using HBS-EP+buffer from GE Healthcare, which contains 10 mM HEPES, 150 mM NaCl, 3 mM EDTA and 0.05% v/v surfactant P20, pH 7.4. Data were acquired at 30° C. using an Octet RED96e system (ForteBio) and processed using the instrument's integrated software. IC50 values were estimated from response vs antagonist concentration plots.

Test [3] has as its target T2, hIL2RB-fc chimera. In words: BLI (Octet RED96e), hIL2RB-fc (Symansis) on anti-human IgG Fc sensors. As to the method:
For this purpose, sensors were soaked in samples containing 20 nM of hIL2RB-fc chimera (Symansis) for 300 sec. […] Finally, sensors were removed from the protein samples and dipped in buffer solutions to promote and measure dissociation (1500 sec). The buffer used to prepare all the samples and soak the sensors was HBS-EP+from GE Healthcare, which contains 10 mM HEPES, 150 mM NaCl, 3 mM EDTA and 0.05% v/v surfactant P20, pH 7.4. Data were acquired at 30° C. using an Octet RED96e system (ForteBio) and processed using the instrument's integrated software. Kinetics were fitted to a 1:1 binding model after subtracting a buffer signal baseline and the Kd values were calculated.

Test [4] concerns the target T3, hIL-2RBG (biotinylated hIL2RG on the sensor with hIL2RB in solution) (UniProt P14784 27-240; P31785 23-262, biotinylated (site not stated)).
T3 chain 1: T1 chain
T3 chain 2: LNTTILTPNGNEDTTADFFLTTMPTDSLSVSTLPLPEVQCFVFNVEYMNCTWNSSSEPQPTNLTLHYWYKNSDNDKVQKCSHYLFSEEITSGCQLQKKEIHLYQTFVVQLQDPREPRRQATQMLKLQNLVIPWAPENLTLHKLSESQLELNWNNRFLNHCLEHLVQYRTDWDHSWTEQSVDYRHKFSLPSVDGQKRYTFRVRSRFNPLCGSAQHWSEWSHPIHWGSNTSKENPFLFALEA
In words: BLI competition, inhibition of hIL-2 binding.

Test [5] has as its target T4, human IL-2 receptor (IL-2Rβγc) on cells (human, UniProt P14784 27-551; P31785 23-369).
T4 sequence 1: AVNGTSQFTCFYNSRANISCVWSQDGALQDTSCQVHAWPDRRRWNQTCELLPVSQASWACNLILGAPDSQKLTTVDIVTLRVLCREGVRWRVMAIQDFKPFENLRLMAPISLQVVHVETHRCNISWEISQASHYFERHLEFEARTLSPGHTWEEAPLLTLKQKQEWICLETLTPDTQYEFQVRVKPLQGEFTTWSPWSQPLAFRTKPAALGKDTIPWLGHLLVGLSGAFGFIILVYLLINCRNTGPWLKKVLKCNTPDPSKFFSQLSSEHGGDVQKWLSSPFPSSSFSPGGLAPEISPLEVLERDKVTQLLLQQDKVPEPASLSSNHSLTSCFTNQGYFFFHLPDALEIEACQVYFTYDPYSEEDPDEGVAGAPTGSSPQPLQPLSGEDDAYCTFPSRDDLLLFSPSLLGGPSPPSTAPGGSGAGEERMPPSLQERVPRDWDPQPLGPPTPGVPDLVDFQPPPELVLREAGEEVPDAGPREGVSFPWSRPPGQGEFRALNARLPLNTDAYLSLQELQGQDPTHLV
T4 sequence 2: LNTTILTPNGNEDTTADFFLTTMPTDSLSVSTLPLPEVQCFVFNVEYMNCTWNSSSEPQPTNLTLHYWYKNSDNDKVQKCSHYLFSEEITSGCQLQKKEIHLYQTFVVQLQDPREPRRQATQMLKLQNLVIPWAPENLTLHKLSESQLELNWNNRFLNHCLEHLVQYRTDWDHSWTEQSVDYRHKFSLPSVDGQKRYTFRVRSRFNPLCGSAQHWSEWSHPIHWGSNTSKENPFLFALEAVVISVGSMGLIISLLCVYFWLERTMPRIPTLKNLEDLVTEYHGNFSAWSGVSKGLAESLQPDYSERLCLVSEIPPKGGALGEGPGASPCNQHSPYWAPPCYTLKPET
In words: cell-based or functional assay.

Test [6] deals with T5, hIL2RG-fc chimera (human, UniProt P31785 23-262).
T5 construct: also called hIL2G; hIL2 receptor gamma; not shown: Fc part of the bought chimera (captured on anti-human IgG Fc biosensors)
T5 sequence: T3 chain 2
Description: BLI (Octet RED96e), hIL2RG-fc on anti-human IgG Fc sensors, 200 nM P4 + 200 nM hIL2RB-fc. As to the method: All samples were prepared using HBS-EP+ buffer from GE Healthcare, which contains 10 mM HEPES, 150 mM NaCl, 3 mM EDTA and 0.05% v/v surfactant P20, pH 7.4. Data were acquired at 30° C. using an Octet RED96e system (ForteBio) and processed using the instrument's integrated software.

Test [7] has as its target T6, Biotinylated hIL2RG (human, UniProt P31785 23-262, limits assumed, biotinylated (site not stated)).
T6 construct: also called human common gamma receptor (hIL2RG); hIL-2Rγc
T6 sequence: T3 chain 2
Description: BLI (Octet RED96), biotinylated hIL2RG on streptavidin sensors, 200 nM protein + 200 nM hIL2RB. Here is the method:
Biotinylated hIL2RG molecules were immobilized to Streptavidin sensors (SA, ForteBio) at 2 μg/mL in binding buffer (10 mM HEPES, pH 7.4, 150 mM NaCl, 3 mM EDTA, 0.05% surfactant P20, 0.5% non-fat dry milk). After baseline measurement in the binding buffer alone, the binding kinetics were monitored by dipping the biosensors in wells containing 200 nM of protein and 200 nM of hIL2RB for 300 sec. Data were collected in an Octet RED96 (ForteBio) and processed using the instrument's integrated software.

Test [8] concerns the target T4, human IL-2 receptor (IL-2Rβγc) on cells. In words: cell-based or functional assay. The source holds these as a separate data set.
The target in test [9] is T7, mouse IL-2 beta receptor (mouse, UniProt P16297 27-240).
T7 construct: also called mIL2RB; beta part of mIL2RBG
T7 sequence (looked up): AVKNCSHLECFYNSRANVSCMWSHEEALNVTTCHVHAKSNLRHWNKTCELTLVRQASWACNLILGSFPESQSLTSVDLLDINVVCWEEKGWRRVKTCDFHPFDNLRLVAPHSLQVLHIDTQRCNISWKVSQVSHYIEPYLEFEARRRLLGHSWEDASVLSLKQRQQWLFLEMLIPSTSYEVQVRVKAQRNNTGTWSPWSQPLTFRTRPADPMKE
In words: method not stated.

Test [10] deals with T7, mouse IL-2 beta receptor. In words: BLI competition: mIL2RG on sensor, dilutions of P4 + 20 nM Neo-2/15; competitor Neo-2/15; read-out binding to mIL2RBG. As to the method: as §1

B1: Protein 4 (P4) (designed binder)
chain: PKKKIQLYAEHALYDAEMILKIVKTNSPPAEEELEDYAFNFELILEEIARLFESGDQKDEAEKAKRMKEWMKRIKTTASEDEQEEMANRIRKILEEWIRS
notes: P2 with H8Y and K33E; N-terminal 6xHis tag and thrombin site in the expression vector; also called S4
For B1, the dissociation constant (Kd) in test [1] was under 1 nM; in test [3] it was 0.06 nM; in test [9], 70.6 nM. Further, the values for the IC50 in [2], in test [4] and in test [10] were 0.9 nM, 88 nM and 67.6 nM, respectively. Moreover, in test [5], the “Signaling Inhibition IC50 (1 nM hIL-2, pSTAT5, CD4+ T cells)” value amounted to 1.46 nM. Besides, in test [5], the “Signaling Inhibition IC50 (1 nM hIL-2, pSTAT5, CD8+ T cells)” value amounted to 0.3 nM. In test [5], the “Signaling Inhibition IC50 (1 nM hIL-2, pSTAT5, all T cells)” value was 0.49 nM. Further, the binding result in test [6] and in [7] was “no binding (tested: 200 nM)” in each case. Further, the “Binding Inhibition IC50 (inhibition of hIL-2 pSTAT5 signaling, human pan T cells, 0.1 nM hIL2)” value in [8] was 0.1 nM. In addition, the “Binding Inhibition IC50 (inhibition of hIL-2 pSTAT5 signaling, human pan T cells, 1 nM hIL2)” value in test [8] was found to be 0.45 nM. The “Binding Inhibition IC50 (inhibition of hIL-2 pSTAT5 signaling, human pan T cells, 10 nM hIL2)” value in test [8] stood at 3.3 nM.

Usually Kd stands for a measure of binding affinity in units of concentration. Higher therefore signals weaker binding. Usually IC50 stands for the concentration that gives 50% inhibition.
